The supplement of paper PMC7877785
± gives the uncertainty stated by the source.

Test: self-splicing fitness, log relative to wild type (ln ratio); higher = more splicing; Tetrahymena group I intron in knt gene, E. coli kanamycin selection, DiMSum; sequences stand for … in CUCUCU…GGAGGGAAAAGUUAUCAGGCAUGCACCUGGUAGCUAGUCUUUAAACCAAUAGAUUGCAUCGGUUUAAAAGGCAAGACCGUCAAAUUGCGGGAAAGGGGUCAACAGCCGUUCAGUACCAAGUCUCAGGGGAAACUUUGAGAUGGCCUUGCAAAGGGUAUGGUAAUAAGCUGACGGACAUGGUCCUAACCACGCAGCCAAGUCCUAAGUCAACAGAUCUUCUGUUGAUAUGGAUGCAGUUCACAGACUAAAUGUCGGUCGGGGAAGAUGUAUUCUUCUCAUAAGAUAUAGUCGGACCUCUCCUUAAUGGGAGCUAGCGGAUGAAGUGAUGCAACACUGGAGCCGCUGGGAACUAAUUUGUAUGCGAAAGUAUAUUGAUUAGUUUUGGAGUACUCGUGGUCG
In short: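 Fitness was computed with DiMSum as the error-weighted combination of replicate fold changes, kanamycin versus none, each normalised to wild type. The library randomised all eight intron nucleotides of the P1ex region, with the intron placed in the knt kanamycin-resistance gene on pET-22b(+) in E. coli BL21(DE3). Six replicate transformations were grown overnight at 37°C or 30°C on LB agar with or without 25 μg/mL kanamycin, plus 100 μg/mL carbenicillin, 50 μM IPTG and 0.2% rhamnose. Pooled colonies were amplicon-sequenced on an Illumina HiSeq 2500.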

| Sequence | self-splicing fitness (ln) (30 °C) | self-splicing fitness (ln) (37 °C) |
| --- | --- | --- |
| AUAGAGCAAUAUUACGGCUU | -0.934 ± 0.12 | -1.34 ± 0.14 |
| AUAGAGCAAUAUUACGGGAC | -2.71 ± 0.18 | -2.36 ± 0.27 |
| AUAGAGCAAUAUUACGGGGA | – | -2.44 ± 0.28 |
| AUAGAGCAAUAUUACGGUAG | -3.5 ± 0.16 | -1.38 ± 0.13 |
| AUAGAGCAAUAUUACGGUUA | -1.49 ± 0.083 | -1.05 ± 0.11 |
| AUAGAGCAAUAUUACGUCAA | -2.19 ± 0.23 | -1.77 ± 0.24 |
| AUAGAGCAAUAUUACGUCUA | -0.2 ± 0.076 | 0.816 ± 0.11 |
| AUAGAGCAAUAUUACGUGAU | -2.02 ± 0.12 | -0.825 ± 0.17 |
| AUAGAGCAAUAUUACGUGGU | -2.91 ± 0.19 | -1.83 ± 0.2 |
| AUAUAGCAAUAUUACGACAC | -1.5 ± 0.23 | -0.312 ± 0.29 |
| AUAUAGCAAUAUUACGAGCA | -2.32 ± 0.24 | -0.917 ± 0.18 |
| AUAUAGCAAUAUUACGAUCC | -0.6 ± 0.16 | -0.578 ± 0.28 |
| AUAUAGCAAUAUUACGCAAA | -1.94 ± 0.24 | -1.69 ± 0.24 |
| AUAUAGCAAUAUUACGCUAA | -1.87 ± 0.3 | -0.768 ± 0.27 |
| AUAUAGCAAUAUUACGCUGG | -2.06 ± 0.2 | -1.51 ± 0.32 |
| AUAUAGCAAUAUUACGCUUG | -1.42 ± 0.11 | -0.589 ± 0.13 |
| AUAUAGCAAUAUUACGGGCA | -1.67 ± 0.17 | -1.29 ± 0.19 |
| AUAUAGCAAUAUUACGUAAC | -1.11 ± 0.21 | -1.86 ± 0.38 |
| AUAUAGCAAUAUUACGUAGG | -3.06 ± 0.21 | -0.744 ± 0.16 |
| AUAUAGCAAUAUUACGUCGG | -3.37 ± 0.33 | -2.03 ± 0.28 |
| AUAUAGCAAUAUUACGUGUG | -3.82 ± 0.27 | -2.46 ± 0.18 |
| AUCAAGCAAUAUUACGAACG | -1.61 ± 0.13 | -0.462 ± 0.13 |
| AUCAAGCAAUAUUACGAAGA | -1.66 ± 0.19 | -1.64 ± 0.23 |
| AUCAAGCAAUAUUACGAGCC | -3.07 ± 0.32 | -1.23 ± 0.31 |
| AUCAAGCAAUAUUACGAUAG | -2.36 ± 0.35 | -1.63 ± 0.43 |

| Sequence | self-splicing fitness (ln) (30 °C) | self-splicing fitness (ln) (37 °C) |
| --- | --- | --- |
| AUCAAGCAAUAUUACGCCGU | -1.19 ± 0.087 | -0.429 ± 0.1 |
| AUCAAGCAAUAUUACGCCUU | -0.799 ± 0.094 | -0.146 ± 0.12 |
| AUCAAGCAAUAUUACGCGAU | -4.42 ± 0.33 | -3.08 ± 0.3 |
| AUCAAGCAAUAUUACGCGCU | -1.27 ± 0.12 | -0.36 ± 0.11 |
| AUCAAGCAAUAUUACGCUAC | – | -0.41 ± 0.33 |
| AUCAAGCAAUAUUACGCUCU | -0.452 ± 0.07 | 0.0492 ± 0.082 |
| AUCAAGCAAUAUUACGCUGA | -2.51 ± 0.13 | -1.46 ± 0.12 |
| AUCAAGCAAUAUUACGGACC | -1.47 ± 0.12 | -1.22 ± 0.086 |
| AUCAAGCAAUAUUACGGCCA | -0.51 ± 0.074 | -0.264 ± 0.079 |
| AUCAAGCAAUAUUACGGCUC | -0.551 ± 0.063 | -0.7 ± 0.076 |
| AUCAAGCAAUAUUACGGCUU | -2.87 ± 0.13 | -1.54 ± 0.14 |
| AUCAAGCAAUAUUACGGUGA | -1.36 ± 0.096 | -0.818 ± 0.1 |
| AUCAAGCAAUAUUACGGUUC | -3.53 ± 0.24 | -2.01 ± 0.13 |
| AUCAAGCAAUAUUACGUCUA | -0.821 ± 0.073 | -0.438 ± 0.076 |
| AUCAAGCAAUAUUACGUCUG | -1.16 ± 0.062 | -0.603 ± 0.076 |
| AUCAAGCAAUAUUACGUUCG | -1.5 ± 0.086 | -0.132 ± 0.091 |
| AUCAAGCAAUAUUACGUUUA | -1.73 ± 0.1 | -1.31 ± 0.093 |
| AUCAAGCAAUAUUACGUUUG | -2.87 ± 0.15 | -2.43 ± 0.18 |
| AUCCAGCAAUAUUACGAACC | -0.394 ± 0.1 | -0.346 ± 0.15 |
| AUCCAGCAAUAUUACGAACG | -0.746 ± 0.08 | -0.625 ± 0.12 |
| AUCCAGCAAUAUUACGACCC | -1.24 ± 0.071 | -0.202 ± 0.089 |
| AUCCAGCAAUAUUACGACCU | -1.86 ± 0.2 | 0.313 ± 0.18 |
| AUCCAGCAAUAUUACGACGC | -1.16 ± 0.12 | -0.49 ± 0.15 |
| AUCCAGCAAUAUUACGAGCC | -3.17 ± 0.25 | -3.32 ± 0.33 |
| AUCCAGCAAUAUUACGAUGA | -0.862 ± 0.086 | -0.285 ± 0.094 |

| Sequence | self-splicing fitness (ln) (30 °C) | self-splicing fitness (ln) (37 °C) |
| --- | --- | --- |
| AUCCAGCAAUAUUACGAUGG | -3.82 ± 0.27 | -2.85 ± 0.25 |
| AUCCAGCAAUAUUACGAUUC | -1.5 ± 0.11 | -0.86 ± 0.12 |
| AUCCAGCAAUAUUACGCAAU | -1.38 ± 0.064 | -0.773 ± 0.089 |
| AUCCAGCAAUAUUACGCAGU | -2.72 ± 0.11 | -0.839 ± 0.09 |
| AUCCAGCAAUAUUACGGCAG | -1.78 ± 0.085 | -0.158 ± 0.097 |
| AUCCAGCAAUAUUACGGGAA | -1.17 ± 0.079 | -0.654 ± 0.082 |
| AUCCAGCAAUAUUACGGGGG | -3.15 ± 0.16 | -1.96 ± 0.15 |
| AUCCAGCAAUAUUACGGGGU | -4.35 ± 0.18 | -2.19 ± 0.13 |
| AUCCAGCAAUAUUACGGUAC | -1.77 ± 0.12 | -0.693 ± 0.14 |
| AUCCAGCAAUAUUACGUAGG | -2.91 ± 0.14 | -1.49 ± 0.12 |
| AUCCAGCAAUAUUACGUUUC | -4.16 ± 0.25 | -2.05 ± 0.2 |
| AUCGAGCAAUAUUACGAGAC | -1.99 ± 0.32 | – |
| AUCGAGCAAUAUUACGAGCG | -2.35 ± 0.33 | -1.81 ± 0.27 |
| AUCGAGCAAUAUUACGCACU | -1.25 ± 0.12 | -0.213 ± 0.14 |
| AUCGAGCAAUAUUACGCAUG | -3.62 ± 0.37 | -2.62 ± 0.26 |
| AUCGAGCAAUAUUACGCCCU | -3.05 ± 0.36 | – |
| AUCGAGCAAUAUUACGCGCG | -2.29 ± 0.15 | -0.653 ± 0.16 |
| AUCGAGCAAUAUUACGGUGC | -2.54 ± 0.16 | -3.15 ± 0.43 |
| AUCGAGCAAUAUUACGGUGU | -2.74 ± 0.1 | -1.71 ± 0.14 |
| AUCGAGCAAUAUUACGUCAA | -2.72 ± 0.25 | -1.3 ± 0.29 |
| AUCGAGCAAUAUUACGUCAC | – | -1.29 ± 0.45 |
| AUCGAGCAAUAUUACGUUCG | -3.25 ± 0.2 | -2.52 ± 0.24 |
| AUCUAGCAAUAUUACGAAUU | -2.94 ± 0.18 | -1.74 ± 0.19 |
| AUCUAGCAAUAUUACGACUA | -0.918 ± 0.2 | -0.511 ± 0.16 |
| AUCUAGCAAUAUUACGAGCA | -0.993 ± 0.18 | -0.654 ± 0.2 |

| Sequence | self-splicing fitness (ln) (30 °C) | self-splicing fitness (ln) (37 °C) |
| --- | --- | --- |
| AUCUAGCAAUAUUACGCAAA | -2.59 ± 0.29 | -3.24 ± 0.39 |
| AUCUAGCAAUAUUACGCAGC | -2.64 ± 0.35 | -2.06 ± 0.31 |
| AUCUAGCAAUAUUACGCGCU | -1.97 ± 0.23 | -0.909 ± 0.2 |
| AUCUAGCAAUAUUACGCUAA | -2.07 ± 0.12 | -0.871 ± 0.12 |
| AUCUAGCAAUAUUACGCUGU | -1.61 ± 0.14 | -1.17 ± 0.18 |
| AUCUAGCAAUAUUACGCUUU | -2.3 ± 0.17 | -0.151 ± 0.12 |
| AUCUAGCAAUAUUACGGAUA | -3 ± 0.46 | -2.05 ± 0.26 |
| AUCUAGCAAUAUUACGGCGA | -0.505 ± 0.14 | -0.448 ± 0.16 |
| AUCUAGCAAUAUUACGGUAU | -1.54 ± 0.1 | -1.19 ± 0.13 |
| AUCUAGCAAUAUUACGGUUC | -2.94 ± 0.32 | -2.34 ± 0.32 |
| AUCUAGCAAUAUUACGUAAA | -2.41 ± 0.15 | -1.29 ± 0.14 |
| AUCUAGCAAUAUUACGUACG | -2.01 ± 0.23 | -1.04 ± 0.2 |
| AUCUAGCAAUAUUACGUCGU | -0.83 ± 0.1 | -1.21 ± 0.11 |
| AUCUAGCAAUAUUACGUGAG | -0.412 ± 0.095 | -0.00344 ± 0.17 |
| AUCUAGCAAUAUUACGUGGU | – | -2.85 ± 0.38 |
| AUCUAGCAAUAUUACGUUCG | -1.28 ± 0.091 | -0.393 ± 0.11 |
| AUCUAGCAAUAUUACGUUGC | -3.28 ± 0.28 | -3.03 ± 0.37 |
| AUGAAGCAAUAUUACGAACA | -0.423 ± 0.1 | 0.795 ± 0.15 |
| AUGAAGCAAUAUUACGAAGG | -2.57 ± 0.18 | -0.569 ± 0.19 |
| AUGAAGCAAUAUUACGAAGU | -1.21 ± 0.1 | -0.533 ± 0.12 |
| AUGAAGCAAUAUUACGACAG | 0.129 ± 0.068 | 0.414 ± 0.095 |
| AUGAAGCAAUAUUACGAGCA | -0.665 ± 0.084 | -0.299 ± 0.083 |
